Test results from the nanobody polyreactivity screen of Harvey et al. (2022).

Experiment: yeast display, Sf9 membrane polyspecificity reagent, FACS + sequencing; frameworks hold sequencing errors
Procedure, shortened: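 Nanobodies came from a synthetic yeast display library in Saccharomyces cerevisiae BJ5465, induced with galactose for 36–48 hours and stained for 1 hour at 4 °C with 10% biotinylated, detergent-solubilized Sf9 membrane reagent. Cells were enriched on streptavidin microbeads and then FACS-sorted, with low and high (top ~1%) gates set on anti-HA fluorescence for expression and streptavidin fluorescence for reagent binding. Each polyreactivity label reflects the gate a clone came from. Genes were amplified by colony PCR, sequenced by MiSeq 2 × 250 and filtered by CDR length.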

Row | Sequence | polyreactivity (PSR sort gate)
1 | QVQLVESGGGLVQAGGSLRLSCAAYGPTFRYNTMGWNRQAPGKERELDARITWSGGSTYYADSVKGRFTISRDNAKNTVYLQMNSLKPEDTAVYYCAAVPILVYRWFQSYTGDYDYWGQGTHVTVSS | low polyreactivity
2 | QVQLVESGGGLVQAGGSLRLSCAAYGRIFAYYTMGWYRQAPGKERELVAAINQSGGSTYYADSVKGRFTISRDNAKNTVYFQMNSLKPEDTAVYYCAAKPYSLYARRYAYDYWGQGTQVTVSS | low polyreactivity
3 | QVQLVESGGGLVQAGGSLRLSCAAYGRIFFYYVMGWYRQAPGNERELVAGITRGGISNYADSVKGRFTISRDNAKNTVYLQMNSLKPEDTAVYYCAAAYYRDSDRRYNYWGQGTQVTVSS | high polyreactivity
4 | QVQLVESGGGLVQAGGSLRLSCAAYGRIFGGYAMGWYRQAPGKERELVAAISRRGGSTYYADSVKGRFTISRDNAKNTVYLQMNSLKPEDTAVYYCNAVLSVQARLTRVDYDYWGQGTEVTVSS | high polyreactivity
5 | QVQLVESGGGLVQAGGSLRLSCAAYGRIFPLNAMGWNRQAPGKERELVAAISYDGGTYYAYSVKGRFTISRDNAKNTFYLQMNSLKPEDTAVYYCANSRATWVGKHDYWGQGTQVTVSS | low polyreactivity
6 | QVQLVESGGGLVQAGGSLRLSCAAYGRIFRYNAMGWSTQAPGKERELVAAISRGGSSTYYADSVKGRFTISRDNAKNTVYLQMNSLQPEDTAVYYCNARSVVREFNNWGQGTQVTVSS | high polyreactivity
7 | QVQLVESGGGLVQAGGSLRLSCAAYGRIFRYYAMGWYRQAPGKERELVVAISRSGSSTYYADSVKGRFTISRDNAKNTVYLQMNSLKPEDTAFYYCAAKLADQTRGTTSDSWGQGTQVTVSS | high polyreactivity
8 | QVQLVESGGGLVQAGGSLRLSCAAYGRTFFSYTMGWYRQAPGKERELVASITWSGGSTYYADSVKGRFTISRDNAKNTVYLQMNSLKPEDTAVYYCAADEKLYITGYDYWGQGTQVNVSS | low polyreactivity
9 | QVQLVESGGGLVQAGGSLRLSCAAYGRTFRIYAMGWYRQAPGKERELVATITWRAGSTYYADSVKGRFTISRDNAKYTVYLQMNSLKPEDTAVYYCAADVSAYSGGYWLDYWGQGTQVTVSS | high polyreactivity
10 | QVQLVESGGGLVQAGGSLRLSCAAYGRTFRKNAMGWYRQAPVKERELVASMSKNGAGTYYADSVKGRFTISRDTAKNTVYLQMNSLKPEDTAVYYCAKLPNLPGDYWGQGTQVTVSS | low polyreactivity
11 | QVQLVESGGGLVQAGGSLRLSCAAYGRTFWPNAMGWYRQAPGKERELVAAFSRRSGSTYYADSVKGRFTISRDNAKNTVYLQMNSLKPEDTAVYYCAAKYRAHGNHSWGQGTQVTVSS | high polyreactivity
12 | QVQLVESGGGLVQAGGSLRLSCAAYGSIFFGNVMGWYRQAPGKARELVAVISWSGGTTYYADSVKGRFTISRDNAKNTVYLQMNSLKPEDTAVYYCNARYLRRGDYWGQGTQVTVSS | low polyreactivity
13 | QVQLVESGGGLVQAGGSLRLSCAAYGSIFLYNALGGYIQAPGKEMELVADITSAGRTYYADSVKGRFTISRDNAKNTVYLQMNSLKPEDTAVYYCNKDYQYHFSWYGYWGQGTQVTVSS | low polyreactivity
14 | QVQLVESGGGLVQAGGSLRLSCAAYGSIFRLYAIGWSRQAPGKDRELVAAISSVGRTYYAYSVKGRFTISRDNAKNTVYLQMNSLKPEDSAVYYCAARPYKFARYDYWGQGTQVTVSS | high polyreactivity
15 | QVQLVESGGGLVQAGGSLRLSCAAYGSIFRSYAMGWYRQAPGKERELVAAISSRYGSTYYADSVKGRFTISRDNAKNTVYLQMNSLKPEDTAVYYCGSQHRHSYGYWGQGTQVTVSS | high polyreactivity
16 | QVQLVESGGGLVQAGGSLRLSCAAYGSIFSGYTMGCYRQAPGKERELVAAITQRGTRTYYADSVKGRFTISRDNAKNTVYLQMNSLKPEDTAVYYCAAVRSYYSNRGYDYWGQGTQVTVSS | high polyreactivity
17 | QVQLVESGGGLVQAGGSLRLSCAAYGSIFTRNAMGWYRQAPGKERELVATITSNDGSTNYADSVKGRFTISRDNAKNTVYLQMISLKPEDTAVYYCNRSYGVYSEFDYWGQGTQVTVSS | low polyreactivity
18 | QVQLVESGGGLVQAGGSLRLSCAAYGSILARYAMGWYRQAPGKERELVAAISYNGGSTYYADSVKGRFTISRDNAKNTVYLQMNSLKPEDTAVYYCAKAYDTTLTYNFWGQGTQVTVSS | low polyreactivity
19 | QVQLVESGGGLVQAGGSLRLSCAAYGSNLTWNDMGWYRQAPGKERELVAAIDVNDGSTYYADSVKGRFTISRDNAKNTVYLQMNRLKPEDTAVYYCAEPTDYTWLDSTLADDYWGQGTQVTVSS | low polyreactivity
20 | QVQLVESGGGLVQAGGSLRLSCAAYGSTFHYYSMGWYRQAPGKERELVAAISSSGVSTYYADSVKGRFTISRDYAKNTVYLQMNSLKPEDTAVYYCNRASVFHYRWYYYWGLGTQVTVSS | high polyreactivity
21 | QVQLVESGGGLVQAGGSLRLSCAAYGSTFYAYAMGWYRQAPGKERELVAAIDSGGSTYYADSVKGRFTISRDNAKNTVYLQMNSLKPEDTAVYYCAVRHRYTRAYWGRDYWGQGTQVTVSS | low polyreactivity
22 | QVQLVESGGGLVQAGGSLRLSCAAYGSTFYHKAMGWYRQAPGKERELVARITRGGSTDYADSVKGRFTISRDNAKNTVYLQMNSRKPEDTAVYYCAAAIGHFERFYWGQGTQVTVSS | low polyreactivity

Row | Sequence | polyreactivity (PSR sort gate)
23 | QVQLVESGGGLVQAGGSLRLSCAAYGSTFYVYAMGWYRQAPGKESELVAAITSAGSTNYADSVKGRFTISRDNAKYTVYLQMNSLKPEDTAVYYCAVYFDTFYGHMYYWGQCTQVTVSS | low polyreactivity
24 | QVQLVESGGGLVQAGGSLRLSCAAYSYVMGGYRQAPGKERELVAAISQSGGSTYYADSVKGRFTISRDNAKNTVYLQMNTLKPEDTAVYYCAASYQVRYDYWGQGTQVTVSS | high polyreactivity
25 | QVQLVESGGGLVQAGGSLRLSCAAYSYVMGWYRQAPGKERELVAAISQSGGSTYYADSVKGRFTISRDNAKNTVYLQMNSLKPEDTAVYYCAARREPYQYNQYYSWGQGTQVTVSS | high polyreactivity
26 | QVQLVESGGGLVQAGGSLRLSCACSGSTFRWYTMGWYRQAPGKECELVAAISISGTSTYYADSVNGRFTISRDNAKNTVYLQMNSLTPEDTAVYYCAADPPSRWGDYWGQGTQVTVSS | high polyreactivity
27 | QVQLVESGGGLVQAGGSLRLSCADSGFIFSHNVMGWYRQAPGKERELVAAISASGGSTYYADSVKGRFTISRDNAKNTVYLQMNSLKPEDTAVYYCAKVTWGTVWYRSPSEYDYWGQGTQVTVSS | low polyreactivity
28 | QVQLVESGGGLVQAGGSLRLSCADSGFIFTPYTMGWYRQAPGKERELVAAITDGSSTYYADSVKGRFTISRDNAKYTVYLQINSLKPEDTAVYYCNADGKPPYISWLYDYWGQGTQVTVSS | low polyreactivity
29 | QVQLVESGGGLVQAGGSLRLSCADSGFISDWYAMGWYRQAPGKERELVATIDWIGGSTYADSVKGRFTISRDNAKNTVYLQMNSMKPEDTAVYYCNAYAFDSVREEDYWGQGTQVTVSS | low polyreactivity
30 | QVQLVESGGGLVQAGGSLRLSCADSGFTFSWYTMGWYRQAPGKERELVAAITVSGGSTYYADSVKGRFTISRDYAKNTVYLQMNSLKPEDTAVYYCNAQDPFTYYSSSPTYDYWGQGTQVTVSS | low polyreactivity
31 | QVQLVESGGGLVQAGGSLRLSCADSGFTFYTYTMGWYRPAPGKERELVAVISRSGGSTYYADSVKGRFTISRDNAKNTVYLQMNSVKPEDTAVYYCNAGYWRFIDSYDYWGQGTQVTVSS | high polyreactivity
32 | QVQLVESGGGLVQAGGSLRLSCADSGGTFGYYVMGWNRQAPGKERELVAAITSGGSTKYADSVKGRFTISRDNAKNTVYLQMNSLKPEDTAVYYCAADYPYYPFSSIYDYWGQGTQVTVSS | low polyreactivity
33 | QVQLVESGGGLVQAGGSLRLSCADSGIIFAYYAMGWYRQAPGKERELVAAITGGGVRTYYADSVKGRFTISRDNAKNTVYLQMNSLKPEDTAVYDCIATGSTASGRVNYWGQGTQVTVSS | high polyreactivity
34 | QVQLVESGGGLVQAGGSLRLSCADSGIIFAYYDMGWYRQAPGKERELVASISSTGGSTYYADSVKGRFTISSDNAKNTVYLQMNSLKPEDTAVYYCAVDGLPPKDALHLYYYWGQGTQVTVSS | low polyreactivity
35 | QVQLVESGGGLVQAGGSLRLSCADSGIIFRYYSMGWYRQAPGKESEFVAAITGSSGSTYADSVKGRFTISRDNAKNTVYLQMNSLKPEDTAVYYCNADSYSIWVYGEYDYWGLGTQVTVSS | high polyreactivity
36 | QVQLVESGGGLVQAGGSLRLSCADSGIIFWRYAMGWYRQAPGKERELVATITSGGSTDYADSVKGRFTISRDNAKNTVYLQMNSLKPEDTAVYYCAALGYATGYWRYYYWGQGTQVTVSS | low polyreactivity
37 | QVQLVESGGGLVQAGGSLRLSCADSGITFAPYAMGWSRQAPGKERELVATITWSGGSTYYADSVKGRFTISRDNAKNTVYLQMNSLKPEDTAVYYCAAYNDTVPSAAHIYESWGQGTQVTVSS | low polyreactivity
38 | QVQLVESGGGLVQAGGSLRLSCADSGITFGVYAMGWYRQAPGKERELVAAISRRGASTYYADSVKGRFTISRDNAKNTVYLQMNSLKPEDTAVYYCAAYLARRQYDYWGQGTQVTVSS | high polyreactivity
39 | QVQLVESGGGLVQAGGSLRLSCADSGITFSDYAMGWYRQAPGKERELVAAISARGGSTYYADSVKGRFTISRDNAKNTVYLQMNSLKPEDTAVYYCAADKRTPYYSRAGMDYWGQGTQVTVSS | low polyreactivity
40 | QVQLVESGGGLVQAGGSLRLSCADSGLIFGRNAMGWYRQAPGKERELVAAITSGGSTYYADSVKGRFTISRDNAKNTVYLQRNSLKPEDTAVYYCAADVVDLYLLDYWGQGTQVTVSS | low polyreactivity
41 | QVQLVESGGGLVQAGGSLRLSCADSGLIFKYYAMGWYRQAPGKERELVAVITSSGGSTYYADSVKGRFTISRDNAKNTVYLQMNSLKPEDTAVYYCAARRVRWPYDYWGQGTQVTVSS | high polyreactivity
42 | QVQLVESGGGLVQAGGSLRLSCADSGLIFWAYAMGWYRQEPGTERELVAAINWRGGSTYYADSVKGRFTISRDTAKNTVYLQMNSLKPEDTAVYYCAADSYYDEYDYWGQGTQVTVSS | low polyreactivity
43 | QVQLVESGGGLVQAGGSLRLSCADSGLTFGSNGMGWYRQAPGKERELVAAISRGGSTSYAVSVKGRFTISRDNAKNTVYLQMNSLKPEDTAVYYCAARSYRYSYRYRAFDYWGQGSQVTVSS | high polyreactivity
